Target: HIV-1 BaL envelope glycoprotein gp120 (head of the virion Env spike) (HIV-1 BaL)
Experiment: cryo-EM structure; cryoelectron tomography of vitrified AT-2-treated HIV-1 BaL virions in PBS; 300 kV, pixel 5.56 A; spike subvolumes (2,070 kept) aligned, classified into eight classes and averaged with missing-wedge compensation, no symmetry imposed; head and leg regions also aligned and classified separately

Substance “HIV-1 BaL envelope glycoprotein gp120 (head of the virion Env spike) (natural protein)” has a stoichiometry N of 3.

From PMC2577619
